Patent US20140248635A1, “ALPHA-TUBULIN […]” (University of Georgia Research Foundation, Inc., priority 2010, published 2014)

How the values were obtained:
[1] = biological target: T1, K40 of α-tubulin (Tetrahymena MEC17-KO axonemes or tubulin) (Tetrahymena thermophila, UniProt P41351); assay: In vitro tubulin acetyltransferase assay: activity of MEC-17 enzyme preparations; type: biochemical; conditions: for αTAT activity on MEC17-KO axonemes: with acetyl-CoA, western 6-11 B-1
T1 construct: Total tubulin was purified from the MEC17-KO strain of Tetrahymena; endogenous in cells; host or cells: Tetrahymena MEC17-KO strain (axonemes from cilia, or DEAE-purified tubulin)
T1 sequence (P41351 whole entry): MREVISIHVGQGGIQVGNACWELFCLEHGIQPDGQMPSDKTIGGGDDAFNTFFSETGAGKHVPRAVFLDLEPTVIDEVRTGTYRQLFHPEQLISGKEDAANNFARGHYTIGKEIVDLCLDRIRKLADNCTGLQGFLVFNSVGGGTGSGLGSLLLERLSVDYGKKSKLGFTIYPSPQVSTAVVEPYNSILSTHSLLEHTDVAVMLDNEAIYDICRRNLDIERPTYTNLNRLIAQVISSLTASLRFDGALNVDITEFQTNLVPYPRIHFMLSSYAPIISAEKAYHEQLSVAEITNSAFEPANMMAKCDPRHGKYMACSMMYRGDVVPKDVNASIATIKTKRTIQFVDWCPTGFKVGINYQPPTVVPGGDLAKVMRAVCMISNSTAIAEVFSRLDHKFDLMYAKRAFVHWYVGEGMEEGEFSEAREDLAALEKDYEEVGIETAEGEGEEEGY
T1 sequence (P41352 whole entry partner): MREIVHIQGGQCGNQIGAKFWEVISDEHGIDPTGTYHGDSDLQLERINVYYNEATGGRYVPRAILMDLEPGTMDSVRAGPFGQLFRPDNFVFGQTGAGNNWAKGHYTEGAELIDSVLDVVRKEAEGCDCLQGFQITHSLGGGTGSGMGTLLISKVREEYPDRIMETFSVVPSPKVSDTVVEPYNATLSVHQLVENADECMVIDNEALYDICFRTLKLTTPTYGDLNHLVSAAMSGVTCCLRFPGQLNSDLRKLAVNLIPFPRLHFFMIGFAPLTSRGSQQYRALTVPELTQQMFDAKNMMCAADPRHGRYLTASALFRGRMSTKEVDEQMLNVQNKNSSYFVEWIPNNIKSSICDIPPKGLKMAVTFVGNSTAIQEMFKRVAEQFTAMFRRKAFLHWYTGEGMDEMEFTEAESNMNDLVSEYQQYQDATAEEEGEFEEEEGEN
From the text: (§1) To disrupt the MEC-17 gene in Tetrahymena, we used homologous DNA recombination with a fragment carrying the neo4 marker that replaced the coding region. MEC-17 was overexpressed in Tetrahymena using the MTT1 cadmium-dependent promoter. In C. elegans, MEC-12-K40, MEC-12-Q40, and MEC-12-R40 transgenes were introduced into a single site on chromosome II in the EG4322 strain. Animals homozygous for a MEC-12 transgene and homozygous for the mec-12(e1607) allele were obtained by standard crosses. All touch sensation assays in C. elegans were done using blind scoring. To deplete human MEC-17 (C6Orf134) mRNA in Hela cells, we introduced MEC-17-specific siRNAs (ON-TARGETplus pool, Dharmacon) using Oligofectamine (Invitrogen). To knockdown mec17 expression in zebrafish, MOs designed to target the MEC-17 mRNA (Open Biosystems) were injected into early embryos. ATG-MEC17 MO targets the translation initiation site of mec17 mRNA. SP-MEC17 MO targets the exon3/intron3-4 splice junction, and is expected to result in an aberrant splicing isoform of exon2 to exon 4, producing a frameshift mutation and associated protein truncation. As a negative control, we injected MO with a random sequence (oligo-25N, Gene Tools) or a 5 bp mismatch to the ATG-MEC17 MO. Live embryos were scored for phenotypes at 48 hpf. To produce a recombinant MEC-17 protein, the cDNA sequence of the murine MEC-17 (BF135007, Open Biosystems) was subcloned into pGEX-3× plasmid (GE Healthcare), expressed in BL21 E. coli cells as a GST fusion and purified using GST-Bind kit (Novagen). The in vitro acetylation assays were performed in 50 mM Tris-HCl pH 8.0, […], 0.1 mM EDTA, with purified Tetrahymena MEC-17-KO axonemes or tubulin (purified using DEAE chromatography), recombinant GST-MmMEC-17 enzyme and 10 μM acetyl-CoA. The reaction was detected by western blotting using anti-acetyl-K antibodies.
(§2) To prepare MEC 17-KO axonemes, Tetrahymena cells were grown to the mid-log phase and deciliated by pH shock (Wloga et al., 2008 Eukaryot Cell 7:1362-1372). Cilia were suspended in 1 ml of 1% NP-40 in the axoneme buffer (30 mM HEPES, 20 mM potassium acetate, 5 mM MgSO4, 0.5 mM EDTA, pH 7.6) with Complete protease inhibitors (Roche). After 1-2 min on ice, axonemes were collected by centrifugation (20,000×g, 15 min, 4° C.), suspended in the in vitro acetylation reaction buffer (50 mM Tris HCl, pH 8.0, 10% glycerol, 0.1 mM EDTA, 1 mM DTT) with protease inhibitors and stored at −80° C.
(§3) Total tubulin was purified from the MEC17-KO strain of Tetrahymena using a protocol modified after Yakovich and colleagues (Yakovich et al., 2006 Exp Parasitol 114:289-296). […]

[2] = biological target: T2, K40 of α-tubulin (Tetrahymena MEC17-KO axonemes or tubulin) (Tetrahymena thermophila, UniProt P41351, K40R); assay: as above; type: biochemical; conditions: pan acetyl-K antibodies
T2 construct: Total tubulin was purified from the MEC17-KO strain of Tetrahymena; endogenous in cells; host or cells: Tetrahymena MEC17-KO strain (axonemes from cilia, or DEAE-purified tubulin)
T2 sequence (P41351 whole entry K40R): as the sequence (P41351 whole entry) above, with K40R counted along it
T2 sequence (P41352 whole entry, further chain): as the sequence (P41352 whole entry partner) above
From the text: as §1, §2, §3

Molecule	K40 acetylation activity on purified tubulin ([1]; highly purified tubulin from MEC17-KO cells)	αTAT activity on MEC17-KO axonemes [1]	acetylation of R40 axonemes (K40R mutant) [2]
GST-MmMEC-17: recombinant murine MEC-17 expressed in E. coli as a GST fusion (protein, left off: a dimerising Fc or GST, recombinant murine MEC-17 expressed in E. coli as a GST fusion) MEFPFDVDALFPERITVLDQHLRPPARRPGTTTPARVDLQQQIMTIVDELGKASAKAQHLPAPITSALRMQSNRHVIYILKDTSARPAGKGAIIGFLKVGYKKLFVLDDREAHNEVEPLCILDFYIHESVQRHGHGRELFQHMLQKERVEPHQLAIDRPSPKLLKFLNKHYNLETTVPQVNNFVIFEGFFAHQHRPPTSSLRATRHSRAAVADPIPAAPARKLPPKRAEGDIKPYSSSDREFLKVAVEPPWPLNRAPRRATPPAHPPPRSSSLGNSPDRGPLRPFVPEQELLRSLRLCPPHPTARLLLATDPGGSPAQRRRTRGTPWGLVAQSCHYSRHGGFNTSFLGTGNQERKQGEQEAEDRSASEDRVLLLDGSGEEPTQTGAPRAQAPPPQSWTVGGDIMNARVIRNLQERRSTRPW	robust K40 acetylation activity	robust αTAT activity	failed to acetylate
GFP-Mec17p: crude GFP-Mec17p-enriched fraction obtained from transgenic Tetrahymena (protein, left off: large carriers, crude GFP-Mec17p-enriched fraction obtained from transgenic Tetrahymena) MFKNQLLSLSLRIQKLRLCRQGNQLKVLQKSINQLLFKTQSIDQILQYLQQKKKTHQSILENQNQHIHSIGLVSQLTNQKINKQKNQKAMEFNFIINKLVQLDQQGLGVYIPRASRSKVSSQQEQQLGQVLNTMGERSAIAQGLKQVITNYDKVQGTDQRVYIVAEGRTCQGFLKVGQKNLFYRDMMGNIKEIKPLCVLDFYVHESCQRQGYGKLLFEYMIQCEQTSPEKLAYDRPSPKLIAFLKKHYNLVKYIAQNNNFVVFDQYFRSDASSQNKQNQNTRSYSQPYSDYSSQIPTNYPQQQQQQSNSKSYPYKQENNIDLMQHSSSRNNKEFLNAGRAILSKEEIYKKDNLSQQNIENTLNNINNSQYSTKSQQQQQYQKDYQLDKYENNWGADKNIKKPPFPGQDRQLDKIQQKIQQTERELDVVNQQIIKQRQNLSQDPLTQNHRAQNVYNTNQFGTSPWAQTGFNYYSTSSSNYGNHYTYYKK		had K40 αTAT activity	
